From paper PMC4322223, “Biochemical and structural characterization of a thermostable β-glucosidase from Halothermothrix orenii for galacto-oligosaccharide synthesis” (Applied Microbiology and Biotechnology, 2014) come the findings set out here.

Holding throughout (assay): purified protein
What all share (conditions): 65 °C, 20 mM HEPES, 150 mM NaCl, pH 7.0

Substrate in data set [1]: O=[N+]([O-])c1ccc(O[C@@H]2O[C@H](CO)[C@@H](O)[C@H](O)[C@H]2O)cc1
Substrate in data set [2]: O=[N+]([O-])c1ccc(O[C@@H]2O[C@H](CO)[C@H](O)[C@H](O)[C@H]2O)cc1
Substrate in data set [3]: O=[N+]([O-])c1ccccc1O[C@@H]1O[C@H](CO)[C@@H](O)[C@H](O)[C@H]1O
Format: biochemical, Halothermothrix orenii.

Substrate in data set [4]: O=[N+]([O-])c1ccccc1O[C@@H]1O[C@H](CO)[C@H](O)[C@H](O)[C@H]1O
Format: biochemical, Halothermothrix orenii.

B1: HoBGLA (Halothermothrix orenii H 168) (protein)
chain: MAKIIFPEDFIWGAATSSYQIEGAFNEDGKGESIWDRFSHTPGKIENGDTGDIACDHYHLYREDIELMKEIGIRSYRFSTSWPRILPEGKGRVNQKGLDFYKRLVDNLLKANIRPMITLYHWDLPQALQDKGGWTNRDTAKYFAEYARLMFEEFNGLVDLWVTHNEPWVVAFEGHAFGNHAPGTKDFKTALQVAHHLLLSHGMAVDIFREEDLPGEIGITLNLTPAYPAGDSEKDVKAASLLDDYINAWFLSPVFKGSYPEELHHIYEQNLGAFTTQPGDMDIISRDIDFLGINYYSRMVVRHKPGDNLFNAEVVKMEDRPSTEMGWEIYPQGLYDILVRVNKEYTDKPLYITENGAAFDDKLTEEGKIHDEKRINYLGDHFKQAYKALKDGVPLRGYYVWSLMDNFEWAYGYSKRFGLIYVDYENGNRRFLKDSALWYREVIEKGQVEAN
notes: full length, 451 residues, GH1; pNIC28-Bsa4 N-terminal His6-TEV tag cut off with TEV protease; expressed in E. coli BL21(DE3); 53 kDa
One may read the Km as the concentration of substrate that gives half-maximal velocity. Usually kcat stands for the number of substrate molecules converted per active site and unit of time at saturation. One may read the kcat/Km as the second-order rate constant that governs catalysis at low substrate concentration. Turning to B1, the Km in “purified protein [1]” came out at 0.296 ± 0.001 mM; in “purified protein [2]” it was 8.34 ± 0.61 mM; in the data set “purified protein [3]”, 0.386 ± 0.002 mM; in the data set “purified protein [4]”, 6.35 ± 0.8 mM. Moreover, the catalytic constant (kcat) in the data set “purified protein [1]” was 55.2 s⁻¹; in “purified protein [2]”, 156 s⁻¹; in the data set “purified protein [3]”, 94.6 s⁻¹; in “purified protein [4]”, 288 s⁻¹. The kcat/Km in “purified protein [1]” stood at 187000 M⁻¹ s⁻¹; in “purified protein [2]”, 18700 M⁻¹ s⁻¹; in the data set “purified protein [3]”, 245000 M⁻¹ s⁻¹; in the data set “purified protein [4]”, 45300 M⁻¹ s⁻¹.
